Test results taken from the DeepSol protein solubility set.

Assay: soluble on expression in E. coli; label from the status in PepcDB or PDB records

Sequence | soluble on expression in E. coli
MGSDKIHHHHHHMSELTLLADADERGRRYLAGNAQRRVFPDADALSALARFNEALPQQGFSPEDTLTLLDEVGSPATTASNGPNYFGFVIGAALPIAAASERLMIAWDQCASTFDNSPVSATLERLASRWVLDILKLPKESAVGFGTSATACTLSCLVAARRAMLAKQGWDFDNDGLIGAPEIKVVISALTHITVKKALRVLGFGLRHIIVAPVNAFGQIDVTQLPPLDDRTILCLQAGEVNTGEFDDFAQIIPIAKAAGAWVHVDGAFGLWARASSHAALTESIELADSWTTDAHKWLNTPYDCAMAICRNADALAEAMNADAVYSSAARDAQKNLTLEFSRRPRGIPVWAVLRTLGRDGVAEMIERHCRQATLIADGLRHAGFEVLNRVVLNQVLLRGETDSQTTAIREALQASGKAWFGGTVWQGRPALRISVSSWRTQDDNVQALIALLTEIKAKTPR | not soluble
MKLDKYTVGKRYGKALFELAVEKNQAEAIYQELLTLREVYHQVPGIGDILSDDRLEPYEKDSIMEKLVTGFSEMMQNFLRVVYEYRRMYDLLLMIDEYERRYDEHQGLILGSVTTAIPLSKEQHQAMEEKAAQLLGYEQAHLVNLIDPSIVGGVVIEANHQVIDGSIRKQLEHMQQKLLK | not soluble
MSLNEQAPVIAVLLTERTRRMMLDDAAIAQLNALGEVRWPTGAAIDATDVDQLLHGAVACLTGWGTPPFDPAARQRHPQLALVAHSAGSVRTLVPARLFDDGIRVTHAASKIAASVAEFVVAEALLAMRGIHRLHHQLRNGGEWLDVRAAVPQKLLGSRTVGIVGAGYVGRAVMRLLVPFGCRVLVVDPFLHDSEAAALGVFRAGLNDMLAQADMVSLHAPVLPETRRMIGARELALLRPGTLFINTARAELVDEAALLAEIRSGRIEAALDVFDNEPLPQDSPFRDPALANVTISPHAAGHTNEAHLAQGQAMVDEIGRLLRREPLQHEVSREGHHHHHH | not soluble
AHHHHHHGSYILQKNKGVIRVKDIAKMMRVKPPTVVEALKKLRDKGFVKYEEHEHILLTEKGLEVAKKTYSKHQLLTEFFINILGIPPEIAERDACQFEHYVSEVTVHRIREFISYIQQECPYALKQFLKKVREKDQAVAK | not soluble
MVETLPALEIGEDERLDLENLATGAFFPVKGFMTREEALSVAHEMRLPTGEVWTIPILLQFREKPRVGPGNTVALLHGGERVALLHVAEAYELDLEALARAVFGTDSETHPGVARLYGKGPYALAGRVEVLKPRPRTPLEKTPEEVRAFFRQRGWRKVVAFQTRNAPHRAHEYLIRLGLELADGVLVHPILGAKKPDDFPTEVIVEAYQALIRDFLPQERVAFFGLATPMRYAGPKEAVFHALVRKNFGATHFLVGRDHAGVGDFYDPYAAHRIFDRLPPLGIEIVKVGAVFHCPLCGGIASERTCPEGHREKRTAISMTKVRALLREGKAPPSELVRPELLPILRRGV | soluble
MGSDKIHHHHHHMQLKNVQRSYALTLGEKTGSTINVGVFAQKRAKKCTQAPLSIILELSRNKERIGAACTMNFTMDLPGLKGVKVTKMEEREDFIALHVEMPRTPHRCPSCGERTERIHDYRIQKVQHLKLFERWVYLFYRKRRYACRCGKRFAEKACFVERYQRQTVEWNQAFRLRLIQGKNFTDTANQFQTSVTTAMRRFDQLAAPLVKKVDHLPPRIAIDDYKGDTNAGKYQVIIADADTRKPLDILPDRKADTLKRYLQEKGHHVKTVVMDLSYTFKSAVQKALGHPLIIGDPFHFCRYIYWALEGVRRRVQKAFHPYHRKRCKRIKHLFQKEREGLDDKQKKKVERYLELSPDLREAYELKEHFRQWYQEAKMQGREGRMSEVKQGLYAFYRRVEASPLKEFHRAIQTLKNWQTEILNSFAFGLNNGFIEGLNNQTKVIKRNAFGFRRYDRLRNRILLHHQFKHQTFGVG | not soluble
MAHHHHHHMHRASRIAAAPFKSVLRRHKHHPEGLPLYNEMSKQWLCREGERWWILDAKGEQLPRVAAVAAQYITGQHRPDFTPGMISGDHVIIVNIKDVVMVGDEWIRVPITWQTAYPGGKYRIRLTDMYERDPCMLMWWFLKDEVNRHFVRKLKTRVAPLEKAWLYEDSVHPHGEKNPRPLCWSDPVVRGWKYTDPQFIRRWKPNEFIT | not soluble
MSQFGATAIGIANIAMNGEVLDTWYPTPELVPASTSPSYSERLGAQDLPPKLLSLVRLDEDRLVEQVAVRTYIGDLDTPPIDAHDVFLRLHLLSHRLVRPLEINMDNAMSILSRVVWTNKGPCLPENFENIRMSLRNRGLIHVYGIDRLPRMVDYVVPTGVEITEAERVRLGAYLAEGTKVLREGYVSFNAGTLGAGRIEGRLYSGTVVGDNVDLGISASIVPDKPHAQLRVGANCVFGLGSAVMGINLGDNVRVGNNVVIDKETMVYFADRDITAAAAILDGQSDWQIHAESGRPEPVVRPT | soluble
MDKIIFQRVTDCEYPSLFSIYKKYLKPTIEEALGWDELYQQQRFNQSYQKEWFDWIMYNGERLGIICTKPDAIRSTIHIHLLIVFEKYQNKGVGTAVMKCYQKHYSDAVTKSCLSAFKVNKSVINFYLSLGYQIVREDEHFVEMERSLCFSGYMGES | not soluble
MIKATDRKLVVGLEIGTAKVAALVGEVLPDGMVNIIGVGSCPSRGMDKGGVNDLESVVKCVQRAIDQAELMADCQISSVYLALSGKHISCQNEIGMVPISEEEVTQEDVENVVHTAKSVRVRDEHRVLHVIPQEYAIDYQEGIKNPVGLSGVRMQAKVHLITCHNDMAKNIVKAVERCGLKVDQLIFAGLAASYSVLTEDERELGVCVVDIGGGTMDIAVYTGGALRHTKVIPYAGNVVTSDIAYAFGTPPSDAEAIKVRHGCALGSIVGKDESVEVPSVGGRPPRSLQRQTLAEVIEPRYTELLNLVNEEILQLQEQLRQQGVKHHLAAGIVLTGGAAQIEGLAACAQRVFHTQVRIGAPLNITGLTDYAQEPYYSTAVGLLHYGKESHLNGEAEVEKRVTASVGSWIKRLNSWLRKEF | not soluble
MGSDKIHHHHHHMIPLEHRYAQIEKAITYIDENFRAHPSVDEIAQNVGMSKYHFIRVFKEYAGVTPKQFLHCVTLNYAKEHIKESRSILESSLDIGLSSSSRLHELFVNLIGVTPREWRERGRGVLVTYGFGQTPFGEALIGFTDKGICYLGLMSDNKLEILGRFYELWGEAILEYDEKAAQKYLGYIFDRGEEGSPWNLGTNSQVNAWKALINLSRHLEDRVEGLIPCCGIISRSGAMSGHRWRIERGAALSLLDDIREKGSFGFSDNIDL | not soluble
MAHHHHHHMSSAVVKPSNGEMPKTKEQKEMKNEYQVETNKELQVNLNFHNNNIISNIFSNLSLFDYLTNIFTINKKTYMLKYCNKLNEDNFYISYFQKENDKFAQISPWHDIDLMNEDGTYNMVVEITKYNYIKLEIQLKENFNVIKQDTKKGKLRYYHNSIYWNYGALPRTYEYPKHIYTCQTGDNQDLFFTGDDDPLDVVDVGQNSLKMGQVVPVKVGSMQSHMTYM | not soluble
MGSDKIHHHHHHMKLRSWEFYDRIARAYDSMYETPKWKLYHRLIGSFLEEYLKNPCRVLDLGGGTGKWSLFLQERGFEVVLVDPSKEMLEVAREKGVKNVVEAKAEDLPFPSGAFEAVLALGDVLSYVENKDKAFSEIRRVLVPDGLLIATVDNFYTFLQQMIEKDAWDQITRFLKTQTTSVGTTLFSFNSYAFKPEDLDSLEGFETVDIRGIGVMEYPDERISEREETIFRLEQELSRDRNIIWKADHIFFVLKKKRGA | soluble
SLFPHISPCEVRVLMLLYSSKKKIFMGLIPYDQSGFVSAIRQVITTRKQAVGPGGVNSGPVQIVNNKFLAWSGVMEWQEPRPEPNSRSKRWLPSHVYVNQGEILRTEQWPRKLYMQLIPQQLLTTLVPLFRNSRLVQFHFTKDLETLKSLCRIMDNGFAGCVHFSYKASCEIRVLMLLYSSEKKIFIGLIPHDQGNFVNGIRRVIANQQQVLQRNLEQEQQQRGMGG | soluble
MQDEYYMARALKLAQRGRFTTHPNPNVGCVIVKDGEIVGEGYHQRAGEPHAEVHALRMAGEKAKGATAYVTLEPCSHHGRTPPCCDALIAAGVARVVASMQDPNPQVAGRGLYRLQQAGIDVSHGLMMSEAEQLNKGFLKRMRTGFPYIQLKLGASLDGRTAMASGESQWITSPQARRDVQLLRAQSHAILTSSATVLADDPALTVRWSELDEQTQALYPQQNLRQPIRIVIDSQNRVTPVHRIVQQPGETWFARTQEDSREWPETVRTLLIPEHKGHLDLVVLMMQLGKQQINSIWVEAGPTLAGALLQAGLVDELIVYIAPKLLGSDARGLCTLPGLEKLADAPQFKFKEIRHVGPDVCLHLVGA | soluble
